From patent US20220348651A1 (Novartis, published 2022) come the findings set out here.

Positions count from the first letter of the chain named.

To fix the notation:
T1: human ENTPD2 expressed on cells (human, UniProt Q9Y5L3 1-495)
T1 sequence: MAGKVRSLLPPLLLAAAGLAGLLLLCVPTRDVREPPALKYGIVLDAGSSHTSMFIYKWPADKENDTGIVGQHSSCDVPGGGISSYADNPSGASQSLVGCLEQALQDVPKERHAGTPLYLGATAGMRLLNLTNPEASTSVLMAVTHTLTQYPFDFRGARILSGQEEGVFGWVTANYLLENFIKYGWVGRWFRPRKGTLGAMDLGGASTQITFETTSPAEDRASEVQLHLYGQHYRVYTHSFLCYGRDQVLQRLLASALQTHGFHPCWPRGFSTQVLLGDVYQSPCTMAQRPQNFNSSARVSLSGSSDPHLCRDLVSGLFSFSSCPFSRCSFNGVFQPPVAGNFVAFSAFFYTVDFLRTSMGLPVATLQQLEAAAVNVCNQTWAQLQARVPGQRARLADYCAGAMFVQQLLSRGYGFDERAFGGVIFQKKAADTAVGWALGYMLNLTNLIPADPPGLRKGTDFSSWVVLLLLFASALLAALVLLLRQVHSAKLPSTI

T2: cyno ENTPD2 expressed on NIH/3T3 cells (cynomolgus macaque, UniProt Q9Y5L3 1-495 (human entry))
T2 chain: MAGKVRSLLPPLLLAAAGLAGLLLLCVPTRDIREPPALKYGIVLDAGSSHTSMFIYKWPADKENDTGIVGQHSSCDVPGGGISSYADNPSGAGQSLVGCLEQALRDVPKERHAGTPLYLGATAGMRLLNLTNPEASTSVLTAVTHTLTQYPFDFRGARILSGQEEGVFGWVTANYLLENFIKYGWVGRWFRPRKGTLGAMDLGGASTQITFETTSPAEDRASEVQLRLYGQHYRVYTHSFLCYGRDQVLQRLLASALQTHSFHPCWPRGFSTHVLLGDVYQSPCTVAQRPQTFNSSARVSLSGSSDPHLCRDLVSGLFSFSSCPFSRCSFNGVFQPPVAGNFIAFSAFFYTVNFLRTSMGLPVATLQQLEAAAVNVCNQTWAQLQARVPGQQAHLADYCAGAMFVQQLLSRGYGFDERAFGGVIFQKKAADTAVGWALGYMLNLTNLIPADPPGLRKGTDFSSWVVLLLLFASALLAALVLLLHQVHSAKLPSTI

T3: Human ENTPD1 (NP_001767) expressed on NIH/3T3 cells (human, UniProt P49961 1-510)
T3 construct: also called NIH/3T3-ENTPD1; CD39
T3 sequence: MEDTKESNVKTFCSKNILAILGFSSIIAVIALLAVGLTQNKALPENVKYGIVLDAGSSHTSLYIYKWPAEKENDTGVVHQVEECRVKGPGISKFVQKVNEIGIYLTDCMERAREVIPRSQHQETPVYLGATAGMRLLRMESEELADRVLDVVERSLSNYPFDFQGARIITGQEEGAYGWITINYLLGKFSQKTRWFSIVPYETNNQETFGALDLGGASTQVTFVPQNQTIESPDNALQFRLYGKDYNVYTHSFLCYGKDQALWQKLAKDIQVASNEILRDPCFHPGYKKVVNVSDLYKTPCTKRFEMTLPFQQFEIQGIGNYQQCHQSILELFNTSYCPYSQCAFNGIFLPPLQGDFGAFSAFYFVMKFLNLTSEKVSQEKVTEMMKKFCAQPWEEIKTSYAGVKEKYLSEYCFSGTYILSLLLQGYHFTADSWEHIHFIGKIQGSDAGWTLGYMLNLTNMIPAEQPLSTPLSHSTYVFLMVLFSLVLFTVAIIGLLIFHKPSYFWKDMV

T4: recombinant cyno ENTPD2 extracellular domain (residues 29-462) with C-terminal Avi-His6 tag (cynomolgus macaque, UniProt Q9Y5L3 29-462 (human entry))
T4 construct: also called cynomologus (cyno) ENTPD2 ECD
T4 chain (part 1 of 2): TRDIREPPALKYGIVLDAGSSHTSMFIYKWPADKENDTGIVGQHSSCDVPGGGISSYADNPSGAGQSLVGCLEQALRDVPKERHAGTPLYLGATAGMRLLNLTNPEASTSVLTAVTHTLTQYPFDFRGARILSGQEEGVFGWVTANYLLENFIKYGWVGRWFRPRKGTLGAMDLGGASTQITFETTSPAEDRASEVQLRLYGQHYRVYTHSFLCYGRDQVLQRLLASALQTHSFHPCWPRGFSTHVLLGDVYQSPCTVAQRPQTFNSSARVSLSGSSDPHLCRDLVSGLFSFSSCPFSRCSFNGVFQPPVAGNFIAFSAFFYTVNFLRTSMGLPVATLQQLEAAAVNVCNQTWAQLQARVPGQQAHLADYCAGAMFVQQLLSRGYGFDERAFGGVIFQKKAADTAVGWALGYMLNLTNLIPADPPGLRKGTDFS
T4 chain (part 2 of 2): HHHHHH

B1: ANTI-HUMAN ENTPD2 MAB8 (antibody, human IgG1, lambda, V domains shown)
VH: QVQLQQSGPGLVKPSQTLSLTCAISGDSVSSSSAAWNWIRQSPSRGLEWLGRIYYRSKWYNDYAVSVKSRITINPDTSKNQFSLQLNSVTPEDTAVYYCARGSYVTSSYEGFDYWGQGTLVTVSS
VL: SYELTQPLSVSVALGQTARITCSGDNLPEKYAYWYQQKPGQAPVLVIYDDNKRPSGIPERFSGSNSGNTATLTISRAQAGDEADYYCQSYGKWGWTWVFGGGTKLTVLG
notes: also called Anti-ENTPD2 mAb8
B2: ANTI-HUMAN ENTPD2 MAB2 (antibody, human IgG1, kappa)
heavy: not shown
light: EIVLTQSPATLSASPGERITLSCSASSSVSYIHWYQQKPGQAPRLLIYSTSNLASGIPARFSGSGSGTFYTLTISSVEPEDAAVYYCHQWSSYPWTFGGGTKLEIKRTVAAPSVFIFPPSDEQLKSGTASVVCLLNNFYPREAKVQWKVDNALQSGNSQESVTEQDSKDSTYSLSSTLTLSKADYEKHKVYACEVTHQGLSSPVTKSFNRGEC
notes: humanized from mAb17; human IgG1, kappa; also called Anti-ENTPD2 mAb2
B3: ANTI-HUMAN ENTPD2 MAB7 (antibody, human IgG1, kappa)
heavy: not shown
light: B2 light with R18E
notes: humanized from mAb17; human IgG1, kappa; also called Anti-ENTPD2 mAb7
B4: ANTI-HUMAN ENTPD2 MAB3 (antibody, human IgG1, kappa, V domains shown)
VH: QVQLVQSGAEVVKPGASVKISCKASGYTFTDYNMDWVKQAPGQRLEWIGDINPKYDISTYNQQFKGKATITVDTSASTAYMELSSLRSEDTAVYYCARRGFFLYYGINYYYFDVWGQGTLVTVSS
VL: EIVLTQSPATLSASPGERITLSCSASSSVSYIHWYQQKPGQAPRLLIYSTSNLASGIPARFSGSGSGTFYTLTISSVEPEDAAVYYCHQWSSYPWTFGGGTKLEIKR
notes: humanized from mAb17; human IgG1, kappa; also called Anti-ENTPD2 mAb3
B5: ANTI-HUMAN ENTPD2 MAB1 (antibody, human IgG1, kappa)
heavy: not shown
light: DIQLTQSPSSLSASVGDRVTITCSASSSVSYIHWFQQKPGKAPKLLIYSTSNLASGVPSRFSGSGSGTFFTLTISSLQPEDFATYFCHQWSSYPWTFGQGTKVEIKRTVAAPSVFIFPPSDEQLKSGTASVVCLLNNFYPREAKVQWKVDNALQSGNSQESVTEQDSKDSTYSLSSTLTLSKADYEKHKVYACEVTHQGLSSPVTKSFNRGEC
notes: humanized from mAb17; human IgG1, kappa; also called anti-ENTPD2 mAb1

The first assay has as its target T1, human ENTPD2 expressed on cells. Briefly: cell-based or functional assay.
For B1, the “% inhibition, Human ENTPD2 NIH/3T3 Assay” value was 97%; the “% inhibition, RKO Assay” value amounted to 95%; the “IC50, Human ENTPD2 NIH/3T3 Assay” value came out at 0.1 nM; the “IC50, RKO Assay” value stood at 0.2 nM.
On to B2, for which the “% inhibition, Human ENTPD2 NIH/3T3 Assay” value is 98%; the “% inhibition, RKO Assay” value was found to be 86%; the “IC50, Human ENTPD2 NIH/3T3 Assay” value was determined as 1.4 nM; the “IC50, RKO Assay” value was 0.8 nM.
On to B3, for which the “% inhibition, Human ENTPD2 NIH/3T3 Assay” value was determined as 95%; the “% inhibition, RKO Assay” value amounted to 92%; the “IC50, Human ENTPD2 NIH/3T3 Assay” value is 0.8 nM; the “IC50, RKO Assay” value was found to be 0.6 nM.
For B4, in that order: 91%, 95%, 1.8 nM and 1.6 nM.
As to B5, the “% inhibition, Human ENTPD2 NIH/3T3 Assay” value stood at 92%; the “% inhibition, RKO Assay” value stood at 97%; the “IC50, Human ENTPD2 NIH/3T3 Assay” value worked out at 1.1 nM; the “IC50, RKO Assay” value turned out to be 0.8 nM.

A further assay addresses T2, cyno ENTPD2 expressed on NIH/3T3 cells. Briefly: cell-based or functional assay.
For the molecule B1, the “% inhibition, Cyno ENTPD2 NIH/3T3 Assay” value amounted to 96% and the “IC50, Cyno ENTPD2 NIH/3T3 Assay” value worked out at 0.9 nM.
For B2, the “% inhibition, Cyno ENTPD2 NIH/3T3 Assay” value worked out at 84% and the “IC50, Cyno ENTPD2 NIH/3T3 Assay” value was determined as 2.7 nM.
In the case of B3, the “% inhibition, Cyno ENTPD2 NIH/3T3 Assay” value stood at 82% and the “IC50, Cyno ENTPD2 NIH/3T3 Assay” value is 2.7 nM.
The like results for B4 were, in that order, 84% and 5.8 nM.
For B5, the “% inhibition, Cyno ENTPD2 NIH/3T3 Assay” value was determined as 91% and the “IC50, Cyno ENTPD2 NIH/3T3 Assay” value amounted to 4.1 nM.

The target in a further assay is T1, human ENTPD2 expressed on cells. Kind of assay: flow cytometry, RKO cells (endogenous ENTPD2). The procedure: FACS screening: Specific binding of candidate antibodies to endogenously expressed ENTPD2 was assessed by flow cytometry. […] Geometric mean fluorescence intensity was calculated on live single cells using FlowJo software.
In general terms: Flow cytometry measures light scatter and fluorescence of single cells or particles in a stream.
As a reminder, the EC50 is the concentration at which the effect is half-maximal. Read a low EC50 as an effect from little substance. B1 displayed a half-maximal effective concentration (EC50) of 0.3 nM.
The same measure, in the same setting: as for B2, the figure is 1.3 nM.
On the same count and under the same terms, as for B3, the figure is 0.4 nM; as for B4, 2.1 nM; as for B5, 0.9 nM.

A further assay concerns the target T3, Human ENTPD1 (NP_001767) expressed on …. Kind of assay: flow cytometry, NIH/3T3-ENTPD1 cells.
In the case of B2, the binding result is listed as “no binding (tested: 50 nM)”.
Still for that read-out and setting: as for B3, the entry is “no binding (tested: 50 nM)”.
On the same count and under the same terms, as for B4, the entry is “no binding (tested: 50 nM)”.
On to B5, for which the binding result is recorded as “no binding (tested: 50 nM)”.

The next assay has as its target T4, recombinant cyno ENTPD2 extracellular …. Briefly: SPR Biacore, mAb captured, ECD analyte, 25C. The procedure:
(§1) Biacore Screening: Affinity was measured by determining the kinetic rate constants using surface plasmon resonance (SPR) on a Biacore T200 or T100 with the T200 sensitivity upgrade instrument (Biacore, GE Healthcare). Antibodies were captured on CM5 sensor chips (Biacore, GE Healthcare) prepared with a mouse anti-human IgG Fc antibody (ThermoFisher catalogue #05-4200) amine coupled to the surface. […] ENTPD2 analytes were allowed to associate for 180 s and dissociate for up to 1800 s depending on the off-rate of the antibody at a flow rate of 30 μL/min. The running buffer was PBS pH 7.2 (prepared from a Corning 10X stock, cat#46-013-CM)+0.05% Tween 20. […] The raw data were analyzed using Biacore T200 Evaluation Software version 1.0 and fit to a 1:1 binding model, with all parameters set to fit globally except for RI, which was set to fit locally.
A word on the Kd: it is a measure of binding affinity in units of concentration. The term koff denotes a measure of how fast the partners let go of each other. In general, kon refers to the rate constant with which the complex forms. Turning to B1, the Kd was found to be 81.1 nM, the dissociation rate constant (koff) is 0.024 s⁻¹ and the on-rate constant (kon) stood at 300000 M⁻¹ s⁻¹.
For the molecule B2, the Kd was determined as 2.8 nM, the dissociation rate constant (koff) turned out to be 0.0012 s⁻¹ and the kon turned out to be 430000 M⁻¹ s⁻¹.
Consider B3, for which the Kd turned out to be 1.1 nM, the koff is 0.0012 s⁻¹ and the kon was found to be 1.2e+06 M⁻¹ s⁻¹.
For B4, in that order: 2.2 nM, 0.00098 s⁻¹ and 450000 M⁻¹ s⁻¹.
The like results for B5 were, in that order, 3.4 nM, 0.0012 s⁻¹ and 360000 M⁻¹ s⁻¹.

The next assay concerns the target T5, recombinant human ENTPD2 extracellular domain (residues 29-462) with C-terminal Avi-His6 tag (human, UniProt Q9Y5L3 29-462, biotinylated on the AviTag in the epitope binning assay).
T5 construct: also called human ENTPD2 ECD; Human ENTPD2-Avi-His6 protein
Kind of assay: SPR Biacore, mAb captured, ECD analyte, 25C. The procedure: as §1
For orientation: SPR reads the build-up and loss of mass on a sensor chip optically.
With B1, the equilibrium dissociation constant (Kd) was determined as 3.3 nM, the off-rate (koff) was 0.00094 s⁻¹ and the kon came out at 290000 M⁻¹ s⁻¹.
As for B2, the Kd stood at 1.7 nM, the dissociation rate constant (koff) was found to be 0.00018 s⁻¹ and the kon came out at 110000 M⁻¹ s⁻¹.
For B3, in that order: 0.9 nM, 0.00019 s⁻¹ and 210000 M⁻¹ s⁻¹.
In the case of B4, the dissociation constant Kd stood at 1.3 nM, the koff was 0.00016 s⁻¹ and the kon is 130000 M⁻¹ s⁻¹.
For B5, in that order: 1.7 nM, 0.00019 s⁻¹ and 110000 M⁻¹ s⁻¹.
